Tests used:
ToTK1 [1] = target: T1, ToTK1 (Solanum lycopersicum, UniProt Q71F77); assay: nucleoside kinase assay, 3H-labelled nucleoside substrate; assay type: biochemical; details: read-out: IC50 dTTP (μM) / dThd
T1 construct: full length, 234 residues; GST fusion from pGEX-2T, thrombin-cleaved, recombinant
T1 sequence (Q71F77 1-234): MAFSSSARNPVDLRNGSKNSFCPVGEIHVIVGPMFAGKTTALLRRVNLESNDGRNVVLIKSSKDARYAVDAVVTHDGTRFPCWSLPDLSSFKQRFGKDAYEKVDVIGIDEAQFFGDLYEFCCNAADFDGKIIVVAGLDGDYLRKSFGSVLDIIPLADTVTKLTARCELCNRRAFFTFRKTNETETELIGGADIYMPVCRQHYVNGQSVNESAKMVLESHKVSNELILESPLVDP
Excerpt: (§1) nucleoside kinase assay, 3H-labelled nucleoside substrate on ToTK1

ToTK1 [2] = target: T2, ToTK1 (Solanum lycopersicum, UniProt Q71F77, N123S/T78A); assay: as above; assay type: biochemical; details: read-out: IC50 dTTP (μM) / dThd
T2 construct: full length, 234 residues; GST fusion from pGEX-2T, thrombin-cleaved, recombinant
T2 sequence (Q71F77 1-234 T78A/N123S): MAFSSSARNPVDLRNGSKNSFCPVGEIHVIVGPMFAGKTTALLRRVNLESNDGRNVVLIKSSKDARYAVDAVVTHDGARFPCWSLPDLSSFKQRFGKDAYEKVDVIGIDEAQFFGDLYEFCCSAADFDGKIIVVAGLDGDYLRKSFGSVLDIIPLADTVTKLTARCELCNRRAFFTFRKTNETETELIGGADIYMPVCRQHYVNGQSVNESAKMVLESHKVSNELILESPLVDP
Excerpt: as §1

ToTK1 [3] = target: T2, ToTK1; assay: nucleoside kinase assay, 3H-labelled nucleoside substrate; Ki equals IC50; assay type: biochemical; details: read-out: dThd
Excerpt: nucleoside kinase assay, 3H-labelled nucleoside substrate; Ki equals IC50 on ToTK1

ToTK1ΔC25 [4] = target: T3, ToTK1ΔC25 (Solanum lycopersicum, UniProt Q71F77); assay: nucleoside kinase assay, 3H-labelled nucleoside substrate; assay type: biochemical; details: read-out: IC50 dTTP (μM) / dThd
T3 construct: last 25 C-terminal residues of the 234-residue protein deleted (residues 210-234, borders derived); GST fusion from pGEX-2T, thrombin-cleaved, recombinant
T3 sequence (Q71F77 1-209): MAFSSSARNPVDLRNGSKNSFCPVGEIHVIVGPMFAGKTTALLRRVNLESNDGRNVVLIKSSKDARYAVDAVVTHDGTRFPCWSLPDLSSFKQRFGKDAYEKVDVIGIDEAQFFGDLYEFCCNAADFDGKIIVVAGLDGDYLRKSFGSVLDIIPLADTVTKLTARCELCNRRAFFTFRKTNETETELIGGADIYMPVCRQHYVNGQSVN
Excerpt: nucleoside kinase assay, 3H-labelled nucleoside substrate on ToTK1ΔC25

ToTK1 [5] = target: T4, ToTK1 (Solanum lycopersicum, UniProt Q71F77, T78A/N123S); assay: nucleoside kinase assay, 3H-labelled nucleoside, Michaelis-Menten fit; assay type: biochemical; details: labelled compound (3H)
T4 construct: full length, 234 residues; GST fusion from pGEX-2T, thrombin-cleaved, recombinant
T4 sequence (Q71F77 1-234 T78A/N123S): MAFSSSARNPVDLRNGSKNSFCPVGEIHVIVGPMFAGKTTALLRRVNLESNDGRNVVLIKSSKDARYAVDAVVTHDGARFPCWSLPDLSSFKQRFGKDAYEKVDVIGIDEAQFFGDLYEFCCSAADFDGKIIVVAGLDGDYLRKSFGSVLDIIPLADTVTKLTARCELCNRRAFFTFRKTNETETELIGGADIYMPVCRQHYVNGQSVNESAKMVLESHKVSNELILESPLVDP
Excerpt: (§2) nucleoside kinase assay, 3H-labelled nucleoside, Michaelis-Menten fit on ToTK1

ToTK1 [6] = target: T1, ToTK1; assay: as above; assay type: biochemical; details: labelled compound (3H)
Excerpt: as §2

ToTK1ΔC25 [7] = target: T3, ToTK1ΔC25; assay: as above; assay type: biochemical; details: labelled compound (3H)
Excerpt: (§3) nucleoside kinase assay, 3H-labelled nucleoside, Michaelis-Menten fit on ToTK1ΔC25

[8] = substrate: O=c1ccn([C@H]2C[C@H](O)[C@@H](CO)O2)c(=O)[nH]1; assay: as above; assay type: biochemical, Solanum lycopersicum; details: labelled compound (3H)
Excerpt: as §3

[9] = substrate: Cc1cn([C@H]2C[C@H](O)[C@@H](CO)O2)c(=O)[nH]c1=O; assay: as above; assay type: biochemical, Solanum lycopersicum; details: labelled compound (3H)
Excerpt: as §2

[10] = substrate: O=c1ccn([C@H]2C[C@H](O)[C@@H](CO)O2)c(=O)[nH]1; assay: as above; assay type: biochemical, Solanum lycopersicum; details: labelled compound (3H); remark: listed apart in the source
Excerpt: as §2

Work on `Cc1cn([C@H]2C[C@H](O)[C@@H](COP(=O)(O)OP(=O)(O)OP(=O)(O)O)O2)c(=O)[nH]c1=O` [dTTP] yielded an IC50 (ToTK1 [1]) of 49.1 ± 1.7 µM, an IC50 (ToTK1 [2]) of 55.6 ± 5.2 µM and a Ki (ToTK1 [3]) of 55.6 µM. It also gave an IC50 (ToTK1ΔC25 [4]) of 65.2 ± 6 µM.

Molecule `Cc1cn([C@H]2C[C@H](N=[N+]=[N-])[C@@H](CO)O2)c(=O)[nH]c1=O` [AZT, 3-azido-2,3-dideoxythymidine] has a Km (ToTK1 [5]) of 1.1 ± 0.1 µM, a Km (ToTK1 [6]) of 1.2 ± 0.04 µM and a Km (ToTK1ΔC25 [7]) of 2 ± 0.06 µM.

B1: ToTK1ΔC25 (Solanum lycopersicum) (protein)
chain: MAFSSSARNPVDLRNGSKNSFCPVGEIHVIVGPMFAGKTTALLRRVNLESNDGRNVVLIKSSKDARYAVDAVVTHDGTRFPCWSLPDLSSFKQRFGKDAYEKVDVIGIDEAQFFGDLYEFCCNAADFDGKIIVVAGLDGDYLRKSFGSVLDIIPLADTVTKLTARCELCNRRAFFTFRKTNETETELIGGADIYMPVCRQHYVNGQSVN
notes: last 25 C-terminal residues of the 234-residue protein deleted (residues 210-234, borders derived); GST fusion from pGEX-2T, thrombin-cleaved, recombinant
Work on B1 yielded a Km [8] of 27 ± 3.3 µM, a Vmax [8] of 4 µmol/min/mg and a kcat [8] of 1.54 s⁻¹. For the same molecule, the kcat/Km [8] was 57000 M⁻¹ s⁻¹.

B2: ToTK1 (Solanum lycopersicum; N123S/T78A) (protein)
chain: MAFSSSARNPVDLRNGSKNSFCPVGEIHVIVGPMFAGKTTALLRRVNLESNDGRNVVLIKSSKDARYAVDAVVTHDGARFPCWSLPDLSSFKQRFGKDAYEKVDVIGIDEAQFFGDLYEFCCSAADFDGKIIVVAGLDGDYLRKSFGSVLDIIPLADTVTKLTARCELCNRRAFFTFRKTNETETELIGGADIYMPVCRQHYVNGQSVNESAKMVLESHKVSNELILESPLVDP
notes: full length, 234 residues; GST fusion from pGEX-2T, thrombin-cleaved, recombinant
In the case of B2, the Km [9] is reported as 1.3 ± 0.36 µM, the Vmax [9] is reported as 1.6 µmol/min/mg and the kcat [9] is reported as 0.69 s⁻¹. For the same molecule, the kcat/Km [9] was 531000 M⁻¹ s⁻¹, the Km [10] was 15 ± 3.3 µM and the Vmax [10] was 1.9 µmol/min/mg. It also gave a kcat [10] of 0.82 s⁻¹ and a kcat/Km [10] of 54700 M⁻¹ s⁻¹.

B3: ToTK1 (Solanum lycopersicum) (protein)
chain: MAFSSSARNPVDLRNGSKNSFCPVGEIHVIVGPMFAGKTTALLRRVNLESNDGRNVVLIKSSKDARYAVDAVVTHDGTRFPCWSLPDLSSFKQRFGKDAYEKVDVIGIDEAQFFGDLYEFCCNAADFDGKIIVVAGLDGDYLRKSFGSVLDIIPLADTVTKLTARCELCNRRAFFTFRKTNETETELIGGADIYMPVCRQHYVNGQSVNESAKMVLESHKVSNELILESPLVDP
notes: as for B2
B3 showed a Km [10] of 17 ± 0.5 µM, a Vmax [10] of 3.4 µmol/min/mg and a kcat [10] of 1.47 s⁻¹. It also gave a kcat/Km [10] of 86500 M⁻¹ s⁻¹.
